Protein stability index data for 72 sequences are collected here from the supplement of paper PMC10567573.

± gives the standard deviation.

The nature of this data set: protein stability index of a GFP-peptide fusion (GPS, HEK-293T) (PSI 1-6); higher = more stable. The settings on record: c terminus: a fixed tail appended.
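Also: 24-mer peptide tiles fused after GFP, lentivirally expressed, FACS-sorted into six equal bins by GFP/DsRed ratio, decoded by Illumina sequencing, PSI is the read-weighted mean bin number.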

With TKGEKIMLAIITKMTLTQVSTWFA [IRX6], the protein stability index by setting is: (treatment: DMSO) 2.97 ± 0.5; (treatment: MLN4924 1 uM, 8 h) 2.95 ± 0.68.
Taken in the same sequence, the figures for TKLEAEIVTLRHVLAAKERRCGEL [TPD52L3] were 2.89 ± 0.22 and 2.78 ± 0.35.
For TLAQTISEAAIGGAMLGQTTSEEA [HDAC6] the same measures were 4.66 ± 0.32 and 4.78 ± 0.28.
Taken in the same sequence, the figures for TLNQLQSLQNSLECAMETTEEQTR [NECAB1] were 4.94 ± 0.13 and 4.97 ± 0.28.
In the case of TNTHPPASLPSQKYPGPQAEGDSE [CHGA], the protein stability index reads like this: (treatment: DMSO) 5.43 ± 0.2; (treatment: MLN4924 1 uM, 8 h) 5.57 ± 0.13.
On to TPEEQGELEPLKGNFDWEAIFDAG [FOXJ1], for which the protein stability index came to 5.29 ± 0.28 (treatment: DMSO) and 5.41 ± 0.088 (treatment: MLN4924 1 uM, 8 h).
For TPHTPKSLLSKARGIDSSSVKLRG [WEE1] the same measures were 4.26 ± 0.54 and 4.08 ± 0.28.
For TPLHLDLTQLHRLSLESSPDAPDH [PLEKHN1] the same measures were 4.59 ± 0.29 and 4.63 ± 0.23.
Taken in the same sequence, the figures for TPPPSPNTQTPVQPPPPPPPPPMQ [CCDC6] were 5.12 ± 0.084 and 5.26 ± 0.25.
In the case of TPSQEHLKHQTVYRLLKCAPRGKN [FEM1A], the protein stability index stood at 3.61 ± 0.15 (treatment: DMSO) and 3.62 ± 0.12 (treatment: MLN4924 1 uM, 8 h).
For TPTSLSSLSNAVANTMEHLSLLDN [FBXO33] the same measures were 4.44 ± 0.065 and 4.44 ± 0.21.
Taken in the same sequence, the figures for TQKLSKIETLRLAKNYIWALSEIL [NEUROD6] were 2.61 ± 0.49 and 2.67 ± 0.47.
For TRHVFTCGRRGIKVWSLTGQVAED [TLE6] the same measures were 2.62 ± 0.14 and 2.68 ± 0.25.
Take TRPKKMGSQLPKPRMLRESGHGDA [FATE1]: the protein stability index (treatment: DMSO) amounted to 4.53 ± 0.19 and the protein stability index (treatment: MLN4924 1 uM, 8 h) was found to be 4.53 ± 0.22.
For TRTAEPAESSVPPVTSIGIDNLGL [SLC35F2] the same measures were 4.48 ± 0.27 and 4.49 ± 0.11.
In the case of TSDASFHPAFLPQRQAIKGAFYRR [KCNG1], the protein stability index (treatment: DMSO) is 3.62 ± 0.097 and the protein stability index (treatment: MLN4924 1 uM, 8 h) is 3.66 ± 0.13.
Regarding TSFCGQQFILERGEYPRWDAWSGS [CRYBA1], the protein stability index by setting is: (treatment: DMSO) 2.77 ± 0.68; (treatment: MLN4924 1 uM, 8 h) 2.65 ± 0.39.
Taken in the same sequence, the figures for TSFSNYYRTWNVVVHDWLYSYVYQ [SOAT2] were 3.11 ± 0.27 and 3.01 ± 0.4.
Taken in the same sequence, the figures for TSGKLLLEADELCDDGGDGRGAVV [ZBTB22] were 5.36 ± 0.29 and 5.31 ± 0.1.
On to TSIEEGYERSFIHKIKHKHILAKN [IQUB], for which the protein stability index is, setting by setting: (treatment: DMSO) 3.14 ± 0.16; (treatment: MLN4924 1 uM, 8 h) 3.29 ± 0.55.
Taken in the same sequence, the figures for TSSAKVDMTFEEEAQLLQLKVKCL [FKBP8] were 3.48 ± 0.28 and 3.54 ± 0.33.
Taken in the same sequence, the figures for TTVGYGDMKPITVGGKIVGSLCAI [KCNA4] were 2.23 ± 0.47 and 2.4 ± 0.27.
Turning to TVDKCFGRKKYDIDPRNGIPKLTP [SPATS1], the protein stability index runs as follows: (treatment: DMSO) 3.45 ± 0.36; (treatment: MLN4924 1 uM, 8 h) 3.51 ± 0.23.
For TVGGEERVSRKPTAAMRCMCPLYD [GAN] the same measures were 3.3 ± 0.21 and 3.46 ± 0.49.
For TVVREVIFLGFSSLARLQQLLFVI [OR10K2] the same measures were 3.15 ± 0.73 and 2.87 ± 0.55.
Taken in the same sequence, the figures for TWKKNRRQLAYSTVGTPDYIAPEV [STK38L] were 3.39 ± 0.2 and 3.48 ± 0.4.
The sequence VAPPEDKESESEAKVDGETASDSE [CDS2] came in with a protein stability index (treatment: DMSO) of 5.55 ± 0.23 and a protein stability index (treatment: MLN4924 1 uM, 8 h) of 5.61 ± 0.18.
Taken in the same sequence, the figures for VAQLFNCMVGLLLIALLTWGYIRY [ATL3] were 3.11 ± 0.58 and 2.77 ± 0.42.
Taken in the same sequence, the figures for VCTISSTGPLQPQPKKPEDEPQET [PKD2L1] were 5.39 ± 0.21 and 5.48 ± 0.16.
For VDRCGASVEAGGSVHFDGETIEGA [FEM1A] the same measures were 4.87 ± 0.24 and 4.92 ± 0.18.
With VDVQTELYLEEIADRIIEVDMECQ [RSPH3], the protein stability index reads like this: (treatment: DMSO) 2.75 ± 0.32; (treatment: MLN4924 1 uM, 8 h) 3.12 ± 0.69.
Taken in the same sequence, the figures for VENRVVEEAKGLLDKVKDGGYRPA [ZBED1] were 4.82 ± 0.13 and 4.94 ± 0.094.
With VFFFIFFVQDVLFVLQAIGIPGWG [SCAMP3], the protein stability index by setting is: (treatment: DMSO) 3.44 ± 0.83; (treatment: MLN4924 1 uM, 8 h) 2.93 ± 0.71.
For the sequence VFITILIIALIALSVGQYNCPGQY [CD69], the protein stability index amounted to 2.6 ± 0.38 (treatment: DMSO) and 2.61 ± 0.57 (treatment: MLN4924 1 uM, 8 h).
For VFNLFRTMGLRHLPVVNAVGEIVG [CLCN6] the same measures were 2.45 ± 0.21 and 2.29 ± 0.18.
For VFRIFKLSRHSKGLQILGHTLRAS [KCNA4] the same measures were 2.39 ± 1 and 2.6 ± 0.68.
For VGYTALVGSDAESWGWDLGRSRLY [SPSB4] the same measures were 2.21 ± 0.076 and 2.56 ± 0.48.
With VHLVIWLLLVAKMSVGHLRLLSHD [JAGN1], the protein stability index is, setting by setting: (treatment: DMSO) 3.39 ± 0.5; (treatment: MLN4924 1 uM, 8 h) 3.36 ± 0.63.
Consider VIDRKVYNISEFTRRHPGGSRVIS [FADS1], for which the protein stability index was 2.66 ± 0.26 (treatment: DMSO) and 3.07 ± 0.062 (treatment: MLN4924 1 uM, 8 h).
Turning to VKAEPFIKWLKEAEEESSGGEEED [EIF5], the protein stability index reads like this: (treatment: DMSO) 5.3 ± 0.28; (treatment: MLN4924 1 uM, 8 h) 5.4 ± 0.15.
For VKRRRTASLSNQECQLYPRRSQQQ [SNURF] the same measures were 4.43 ± 0.18 and 4.45 ± 0.19.
Taken in the same sequence, the figures for VKSNTEQMREAFATAFSKLKPESS [ZBED1] were 4.34 ± 0.24 and 4.27 ± 0.18.
With VKTWFQNQRMKSKRWQKNNWPKNS [NANOGP8], the protein stability index by setting is: (treatment: DMSO) 2.21 ± 0.57; (treatment: MLN4924 1 uM, 8 h) 2.42 ± 0.38.
For VKVTFNKQDSLVILTIMATLKIRN [TMEM106C] the same measures were 2.92 ± 0.53 and 2.89 ± 0.32.
Taken in the same sequence, the figures for VLSLKEGAREEDLDAVEAQIGCKL [FBXO3] were 5.24 ± 0.49 and 4.6 ± 0.25.
For the sequence VLSNMEKLFCIPVHGIRSVGTAAV [IMPA1], the protein stability index worked out at 2.09 ± 0.47 (treatment: DMSO) and 2.12 ± 0.059 (treatment: MLN4924 1 uM, 8 h).
For VLSRLQDAAVVRPGFLSTAEEETL [ALKBH7] the same measures were 4.21 ± 0.17 and 4.12 ± 0.55.
For VLTAVDGGTPARSGTTLISVIVLD [PCDHGC5] the same measures were 2.34 ± 0.47 and 2.26 ± 0.22.
For VLVLAVQVHAWQLYYSKKLLDSWF [JAGN1] the same measures were 3.23 ± 0.49 and 3.06 ± 0.91.
For the sequence VLYTDKTYAMGHLIQRKKVHVFGD [TNFSF13B], the protein stability index amounted to 2.28 ± 0.14 (treatment: DMSO) and 2.51 ± 0.41 (treatment: MLN4924 1 uM, 8 h).
Taken in the same sequence, the figures for VNEFGMSGEDPTAAAPVAEVPTAA [CLPTM1] were 5.49 ± 0.26 and 5.39 ± 0.19.
Take VNEKLPQREGTGKTVSLQIFSVLN [SMOC2]: the protein stability index is, setting by setting: (treatment: DMSO) 2.7 ± 0.37; (treatment: MLN4924 1 uM, 8 h) 2.84 ± 0.4.
Taken in the same sequence, the figures for VNSSIKTFFCPNDTYNDMATLFFN [CLCN6] were 2.13 ± 0.31 and 2.26 ± 0.14.
For the sequence VNVTIHFRLKTINLQSLINNEIPD [MCOLN1], the protein stability index was 3.28 ± 0.25 (treatment: DMSO) and 3.21 ± 0.25 (treatment: MLN4924 1 uM, 8 h).
For VPMILVGNKCDLEDERVVGKEQGQ [RAP1B] the same measures were 4.56 ± 0.35 and 4.72 ± 0.39.
For VPVRRPARRRQSAGPWPRPKGSLS [RASAL3] the same measures were 4.73 ± 0.25 and 4.68 ± 0.23.
Taken in the same sequence, the figures for VQRLQAYTATEQEMQQQMSLGELC [TRIM14] were 4 ± 0.077 and 3.9 ± 0.21.
Consider VQSEIFLHESYCMDTSHQPLLPAP [LYSMD4], for which the protein stability index is 2.93 ± 0.23 (treatment: DMSO) and 2.76 ± 0.28 (treatment: MLN4924 1 uM, 8 h).
Taken in the same sequence, the figures for VRAWDLETGKLLWKVRYDTFIVSC [WDR88] were 2.67 ± 0.069 and 2.11 ± 0.48.
For VRNDSCVVHEDFREDILSCYDVYS [PKD2L1] the same measures were 2.99 ± 0.34 and 3.16 ± 0.28.
On to VRSQTLPRTSEAQARKALFEKWEQ [SMTNL2], for which the protein stability index is, setting by setting: (treatment: DMSO) 3.98 ± 0.28; (treatment: MLN4924 1 uM, 8 h) 4.16 ± 0.47.
For the sequence VTEDLRLKDWEHSIALRNISLAKG [SCARA5], the protein stability index was found to be 3.5 ± 0.26 (treatment: DMSO) and 3.59 ± 0.39 (treatment: MLN4924 1 uM, 8 h).
For VTGMELEFKRLASSKAHTSRFISA [PTPRD] the same measures were 2.71 ± 0.33 and 2.81 ± 0.4.
As for VTQDGRKIYFTDSSSKWQRRDYLL [APMAP], the protein stability index reads like this: (treatment: DMSO) 2.51 ± 0.18; (treatment: MLN4924 1 uM, 8 h) 2.41 ± 0.63.
Taken in the same sequence, the figures for VTSQATLLTITKAHSNAISNCCFT [WDR88] were 2.3 ± 0.55 and 2.18 ± 0.28.
Taken in the same sequence, the figures for VVCASYEDYGHWLLCLRAVTHREG [PLEKHN1] were 2.52 ± 0.56 and 2.62 ± 0.49.
On to VVEVENFLFVLGGEDQWNPNGKHS [KLHL14], for which the protein stability index was 2.39 ± 0.31 (treatment: DMSO) and 2.37 ± 0.19 (treatment: MLN4924 1 uM, 8 h).
With VVEVTKGILEHVDSASPVEDTSND [M1AP], the protein stability index reads like this: (treatment: DMSO) 5.54 ± 0.23; (treatment: MLN4924 1 uM, 8 h) 5.47 ± 0.31.
For VVVESMEQDRIPEVHVPPSSAVSG [MIA2] the same measures were 4.45 ± 0.36 and 4.48 ± 0.2.
Taken in the same sequence, the figures for VYFKRFYARYSLKSIDPVLMAPTC [CCNC] were 3.11 ± 1.3 and 2.13 ± 0.32.
For VYMTEPIDEYCVQQLKEFDGKSLV [HSP90AB1] the same measures were 3.06 ± 0.15 and 3.29 ± 0.25.
For WFGASVLSLLELLELLLDASALTL [SCNN1D], the protein stability index came out at 2.54 ± 0.74 (treatment: DMSO) and 2.15 ± 0.31 (treatment: MLN4924 1 uM, 8 h).
